Patent US20180344813A1, “ENGINEERED POLYPEPTIDES HAVING ENHANCED DURATION OF ACTION WITH REDUCED IMMUNOGENICITY” (priority 2016, published 2018)
Read-outs that look alike come from different tables or passages of the source.

Legend:
[1] = test system: IgG molecules present in normal human sera; experiment: Serum response analysis: ELISA of human serum IgG binding to albumin binding polypeptides
Method: Each serum sample was tested as a singlet.

[2] = test system: renal cortical tubular epithelial cells; experiment: Kidney vacuolization histopathology in C57BL6 female mice; assay type: in vivo, mouse
Method: With some drugs, such as some pegylated proteins, undesirable vacuoles can form in cytoplasm of epithelial cells lining the proximal convoluted tubules, which is an undesirable toxicity measure. […] C57BL6 female mice (n=2 cages, 3 mice/cage) were weighed daily 3 hours prior to lights out. Immediately after weighing, on days 0-6 mice were injected subcutaneously with test compound. Mice were sacrificed on day 7 and kidneys submitted for histopathology. […] A positive control compound known to cause vacuole formation was scored as 3.

NIH/Swiss mice = experiment: OGTT DOA (oral glucose tolerance test duration of action); assay type: in vivo, mouse; details: 25 nmol/Kg, OGTT at 24 hours post drug administration, 30 minutes post gavage; 4-hr fasted NIH/Swiss mice
Method: For example, duration can be performed using an oral glucose tolerance test (OGTT) in which the drug is administered to the subject at a desired time point before the glucose is administered orally(to measure drug duration of action; OGTT DOA) and glucose blood levels are measured (e.g. readily done in mice).
Drug was administered to 4-hr fasted NIH/Swiss mice. […] Blood glucose was measured with a OneTouch® Ultra® (LifeScan, Inc., a Johnson & Johnson Company, Milpitas, Calif.). *p<0.05 vs. vehicle control; ANOVA, Dunnett's test. Glucose lowering as percent lowering compared to vehicle is given (negative value indicates lowering of glucose) at 30 minutes post gavage.

Molecule | reactivity with serum IgG (average OD-value and percentage of serum with IgG binding) [1] | number of responding individuals (CD3+ CD4+ T cells) | further results
CC[C@H](C)[C@H](NC(=O)[C@H](C)NC(=O)[C@H](CC(=O)O)NC(=O)[C@H](CCCCN)NC(=O)[C@H](CC(C)C)NC(=O)[C@H](C)NC(=O)[C@H](CCC(=O)O)NC(=O)[C@@H](NC(=O)CNC(=O)[C@H](CCC(=O)O)NC(=O)[C@@H](NC(=O)[C@@H](NC(=O)[C@H](CCCCN)NC(=O)[C@H](C)NC(=O)[C@H](CCCCN)NC(=O)[C@H](CC(=O)O)NC(=O)[C@@H](NC(=O)[C@H](CC(C)C)NC(=O)[C@H](CCCNC(=N)N)NC(=O)[C@H](CCCCN)NC(=O)[C@H](Cc1ccc(O)cc1)NC(=O)[C@H](Cc1ccccc1)NC(=O)[C@H](CC(=O)O)NC(=O)[C@H](CO)NC(=O)[C@@H](NC(=O)CNC(=O)[C@H](Cc1ccc(O)cc1)NC(=O)[C@H](CO)NC(=O)[C@H](CC(=O)O)NC(=O)[C@H](CC(C)C)NC(=O)[C@H](CCC(=O)O)NC(=O)[C@H](C)NC(=O)[C@H](CC(N)=O)NC(=O)[C@H](C)NC(=O)[C@H](C)NC(=O)[C@H](CCC(=O)O)NC(=O)[C@H](CCCCN)NC(=O)[C@H](C)NC(=O)[C@H](CCC(=O)O)NC(=O)[C@H](C)NC(=O)[C@H](CC(C)C)NC(=O)CN)C(C)C)[C@@H](C)CC)[C@@H](C)O)C(C)C)C(C)C)C(=O)N[C@@H](CC(C)C)C(=O)N[C@@H](C)C(=O)N[C@@H](C)C(=O)N[C@@H](CC(C)C)C(=O)N1CCC[C@H]1C(=O)O [PEP07914] | least reactivity | 2 | immunogenicity definition (CD3+ CD4+ T cells): non-immunogenic
CC[C@H](C)[C@H](NC(=O)[C@H](CCC(=O)O)NC(=O)[C@H](CC(=O)O)NC(=O)[C@@H](NC(=O)[C@H](CC(C)C)NC(=O)[C@H](C)NC(=O)[C@H](CCCCN)NC(=O)[C@@H](NC(=O)CNC(=O)[C@H](CCC(=O)O)NC(=O)[C@@H](NC(=O)[C@@H](NC(=O)[C@H](CCCCN)NC(=O)[C@H](C)NC(=O)[C@H](CC(N)=O)NC(=O)[C@H](CC(N)=O)NC(=O)[C@@H](NC(=O)[C@H](CC(C)C)NC(=O)[C@H](CC(N)=O)NC(=O)[C@H](CCCCN)NC(=O)[C@H](Cc1ccc(O)cc1)NC(=O)[C@H](Cc1ccc(O)cc1)NC(=O)[C@H](CC(=O)O)NC(=O)[C@H](CO)NC(=O)[C@@H](NC(=O)CNC(=O)[C@H](Cc1ccc(O)cc1)NC(=O)[C@H](CCCCN)NC(=O)[C@H](CC(=O)O)NC(=O)[C@H](CC(C)C)NC(=O)[C@H](CCC(=O)O)NC(=O)[C@H](CCCNC(=N)N)NC(=O)[C@H](CC(N)=O)NC(=O)[C@H](C)NC(=O)[C@H](CC(C)C)NC(=O)[C@@H](NC(=O)[C@H](CCCCN)NC(=O)[C@H](C)NC(=O)[C@H](CCC(=O)O)NC(=O)[C@H](C)NC(=O)[C@H](CC(C)C)NC(=O)CN)C(C)C)C(C)C)[C@@H](C)CC)[C@@H](C)O)C(C)C)C(C)C)[C@@H](C)CC)C(=O)N[C@@H](CC(C)C)C(=O)N[C@@H](C)C(=O)N[C@@H](C)C(=O)N[C@@H](CC(C)C)C(=O)N1CCC[C@H]1C(=O)O [PEP07913, reference compound] | highest |  | 
CC[C@H](C)[C@H](NC(=O)[C@H](Cc1c[nH]cn1)NC(=O)[C@H](CC(C)C)NC(=O)[C@H](CCCCN)NC(=O)[C@H](CC(C)C)NC(=O)[C@H](C)NC(=O)[C@H](CCC(=O)O)NC(=O)[C@@H](NC(=O)CNC(=O)[C@H](CCC(=O)O)NC(=O)[C@@H](NC(=O)[C@@H](NC(=O)[C@H](CCCCN)NC(=O)[C@H](C)NC(=O)[C@H](CCCCN)NC(=O)[C@H](CC(N)=O)NC(=O)[C@@H](NC(=O)[C@H](CC(C)C)NC(=O)[C@H](CCCNC(=N)N)NC(=O)[C@H](CCCCN)NC(=O)[C@H](Cc1ccc(O)cc1)NC(=O)[C@H](Cc1ccccc1)NC(=O)[C@H](CC(=O)O)NC(=O)[C@H](CO)NC(=O)[C@@H](NC(=O)CNC(=O)[C@H](Cc1ccc(O)cc1)NC(=O)[C@H](CCCCN)NC(=O)[C@H](CC(=O)O)NC(=O)[C@H](CC(C)C)NC(=O)[C@H](CCC(=O)O)NC(=O)[C@H](CCCNC(=N)N)NC(=O)[C@H](CC(N)=O)NC(=O)[C@H](C)NC(=O)[C@H](CC(C)C)NC(=O)[C@@H](NC(=O)[C@H](CCCCN)NC(=O)[C@H](C)NC(=O)[C@H](CCC(=O)O)NC(=O)[C@H](C)NC(=O)[C@H](CC(C)C)NC(=O)[C@H](CO)NC(=O)[C@H](CO)NC(=O)CN)C(C)C)C(C)C)[C@@H](C)CC)[C@@H](C)O)C(C)C)C(C)C)C(=O)N[C@@H](CC(C)C)C(=O)N[C@@H](C)C(=O)N[C@@H](C)C(=O)N[C@@H](CC(C)C)C(=O)N1CCC[C@H]1C(=O)O [PEP06923, reference compound] |  |  | reactivity with serum IgG (average OD-value and percentage of serum with IgG binding) ([1]; 126 positive human sera, diluted 50 times): highest
CC[C@H](C)[C@H](NC(=O)[C@H](C)NC(=O)[C@H](CC(=O)O)NC(=O)[C@H](CCCCN)NC(=O)[C@H](CC(C)C)NC(=O)[C@H](C)NC(=O)[C@H](CCC(=O)O)NC(=O)[C@@H](NC(=O)CNC(=O)[C@H](CCC(=O)O)NC(=O)[C@@H](NC(=O)[C@@H](NC(=O)[C@H](CCCCN)NC(=O)[C@H](C)NC(=O)[C@H](CCCCN)NC(=O)[C@H](CC(=O)O)NC(=O)[C@@H](NC(=O)[C@H](CC(C)C)NC(=O)[C@H](CCCNC(=N)N)NC(=O)[C@H](CCCCN)NC(=O)[C@H](Cc1ccc(O)cc1)NC(=O)[C@H](Cc1ccccc1)NC(=O)[C@H](CC(=O)O)NC(=O)[C@H](CO)NC(=O)[C@@H](NC(=O)CNC(=O)[C@H](Cc1ccc(O)cc1)NC(=O)[C@H](CO)NC(=O)[C@H](CC(=O)O)NC(=O)[C@H](CC(C)C)NC(=O)[C@H](CCC(=O)O)NC(=O)[C@H](C)NC(=O)[C@H](CC(N)=O)NC(=O)[C@H](C)NC(=O)[C@H](C)NC(=O)[C@H](CCC(=O)O)NC(=O)[C@H](CCCCN)NC(=O)[C@H](C)NC(=O)[C@H](CCC(=O)O)NC(=O)[C@H](C)NC(=O)[C@H](CC(C)C)NC(=O)[C@H](CO)NC(=O)CN)C(C)C)[C@@H](C)CC)[C@@H](C)O)C(C)C)C(C)C)C(=O)N[C@@H](CC(C)C)C(=O)N[C@@H](C)C(=O)N[C@@H](C)C(=O)N[C@@H](CC(C)C)C(=O)N1CCC[C@H]1C(=O)O [PEP07986] |  |  | severity score for cytoplasmic vacuolation of renal cortical tubular epithelial cells ([2]; mouse, in vivo, sc): 0
HGEGTFTSDLSKQLEEEAVRLFIEWLKNGGPSSGAPPKSTGGGGSASGSLAEAKEAANAELDSYGVSDFYKRLIDKAKTVEGVEALKDAILAALP [Cmpd 6] |  |  | Percent glucose lowering compared to vehicle (NIH/Swiss mice): −22%
CC[C@H](C)[C@H](NC(=O)[C@H](C)NC(=O)[C@H](CC(=O)O)NC(=O)[C@H](CCCCN)NC(=O)[C@H](CC(C)C)NC(=O)[C@H](C)NC(=O)[C@H](CCC(=O)O)NC(=O)[C@@H](NC(=O)CNC(=O)[C@H](CCC(=O)O)NC(=O)[C@@H](NC(=O)[C@@H](NC(=O)[C@H](CCCCN)NC(=O)[C@H](C)NC(=O)[C@H](CCCCN)NC(=O)[C@H](CC(=O)O)NC(=O)[C@@H](NC(=O)[C@H](CC(C)C)NC(=O)[C@H](CCCNC(=N)N)NC(=O)[C@H](CCCCN)NC(=O)[C@H](Cc1ccc(O)cc1)NC(=O)[C@H](Cc1ccccc1)NC(=O)[C@H](CC(=O)O)NC(=O)[C@H](CO)NC(=O)[C@@H](NC(=O)CNC(=O)[C@H](Cc1ccc(O)cc1)NC(=O)[C@H](CCCCN)NC(=O)[C@H](CC(=O)O)NC(=O)[C@H](CC(C)C)NC(=O)[C@H](CCC(=O)O)NC(=O)[C@H](C)NC(=O)[C@H](CC(N)=O)NC(=O)[C@H](C)NC(=O)[C@H](C)NC(=O)[C@H](CCC(=O)O)NC(=O)[C@H](CCCCN)NC(=O)[C@H](C)NC(=O)[C@H](CO)NC(=O)[C@H](C)NC(=O)[C@H](CC(C)C)NC(=O)[C@H](CO)NC(=O)[C@H](CO)NC(=O)CN)C(C)C)[C@@H](C)CC)[C@@H](C)O)C(C)C)C(C)C)C(=O)N[C@@H](CC(C)C)C(=O)N[C@@H](C)C(=O)N[C@@H](C)C(=O)N[C@@H](CC(C)C)C(=O)N1CCC[C@H]1C(=O)O [PEP07844] | highest |  | 
Keyhole Limpet Hemocyanin [KLH, reference compound] |  | 51 | 
CC[C@H](C)[C@H](NC(=O)[C@H](C)NC(=O)[C@H](CC(=O)O)NC(=O)[C@H](CCCCN)NC(=O)[C@H](CC(C)C)NC(=O)[C@H](C)NC(=O)[C@H](CCC(=O)O)NC(=O)[C@@H](NC(=O)CNC(=O)[C@H](CCC(=O)O)NC(=O)[C@@H](NC(=O)[C@@H](NC(=O)[C@H](CCCCN)NC(=O)[C@H](C)NC(=O)[C@H](CCCCN)NC(=O)[C@H](CC(=O)O)NC(=O)[C@@H](NC(=O)[C@H](CC(C)C)NC(=O)[C@H](CCCNC(=N)N)NC(=O)[C@H](CCCCN)NC(=O)[C@H](Cc1ccc(O)cc1)NC(=O)[C@H](Cc1ccccc1)NC(=O)[C@H](CC(=O)O)NC(=O)[C@H](CO)NC(=O)[C@@H](NC(=O)CNC(=O)[C@H](Cc1ccc(O)cc1)NC(=O)[C@H](CSC1CC(=O)N(CCNC(=O)CN2CCN(CC(=O)O)CCN(CC(=O)O)CCN(CC(=O)O)CC2)C1=O)NC(=O)[C@H](CC(=O)O)NC(=O)[C@H](CC(C)C)NC(=O)[C@H](CCC(=O)O)NC(=O)[C@H](C)NC(=O)[C@H](CC(N)=O)NC(=O)[C@H](C)NC(=O)[C@H](C)NC(=O)[C@H](CCC(=O)O)NC(=O)[C@H](CCCCN)NC(=O)[C@H](C)NC(=O)[C@H](CO)NC(=O)[C@H](C)NC(=O)[C@H](CC(C)C)NC(=O)CN)C(C)C)[C@@H](C)CC)[C@@H](C)O)C(C)C)C(C)C)C(=O)N[C@@H](CC(C)C)C(=O)N[C@@H](C)C(=O)N[C@@H](C)C(=O)N[C@@H](CC(C)C)C(=O)N1CCC[C@H]1C(=O)O (stereo partly shown) [PEP07968] | least reactivity | 1 | immunogenicity definition (CD3+ CD4+ T cells): non-immunogenic
HGEGTFTSDLSKQLEEEAVRLFIEWLKQGGPSKEIISTGGGGSASGSLAEAKEAANAELDSYGVSDFYKRLIDKAKTVEGVEALKDAILAALP [Cmpd 5] |  |  | severity score for cytoplasmic vacuolation of renal cortical tubular epithelial cells ([2]; subcutaneous on days 0-6, sacrificed on day 7, C57BL6 female mice): 0
